Results reported in patent US20250235545A1, “POLYPEPTIDE CONJUGATE AND USE THEREOF” (SHANGHAI CHIXI BIOMEDICAL TECHNOLOGY CO., LTD, priority 2024, published 2025).
Values after ≈ are worked out from the molar mass of the structure shown. Where two headings read alike, the source gives them in different places. Where a SMILES comes first, the peptide text is derived from it. The star is where a group is joined. X1 = CC[C@@]1(O)C(=O)OCc2c1cc1n(c2=O)Cc2c-1nc1ccccc1c2CCN(C1CCC1)*; Propanoyl(3-maleimido) = O=C1C=CC(=O)N1CCC(=O)*; PEG6 = NCCOCCOCCOCCOCCOCCOCCC(=O)O

How the values were obtained:
A2780 (ovarian cancer) = test: cells; format: cell-based; settings: CCK8, 48 h; Table 6
How it was run: (§1)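 Following a 48 h drug exposure of 5,000 seeded cells per well, wells received CCK8 and, after about 2 h incubation, optical density at 450 nm was recorded. IC50 values were computed from survival rates versus solvent-only wells.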

[1] = test system: A549 (non-small cell lung cancer); test: cells; format: cell-based; settings: CCK8, 48 h; Table 6
How it was run: as §1

SJSA-1 (sarcoma tissue) = test: cells; format: cell-based; settings: CCK8, 48 h; Table 6
How it was run: as §1

[2] = test system: SKBR3 (breast cancer tissue); test: cells; format: cell-based; settings: CCK8, 48 h; Table 6
How it was run: as §1

[3] = test system: colo320 (colorectal cancer tissue); test: cells; format: cell-based; settings: CCK8, 48 h; Table 6
How it was run: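 Colo320 cells, 5,000 per well, exposed to drug concentration series for 48 h at 37 °C, 5% CO2 (0.1% DMSO controls). Viability by CCK8, absorbance at 450 nm after about 2 h. Survival rates and IC50 calculated.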

[4] = test system: sarcoma SJSA-1 tumor model; settings: Table 7
How it was run: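 Female BALB/c nude mice (6-8 weeks) bearing subcutaneous right-chest SJSA-1 xenografts from 2×10^7 cells were randomized, three per group, once tumors reached at least 100 mm^3. Treatment given once a week for three weeks starting day 1; saline controls.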

[5] = test system: colo320 colorectal cancer tumor model; settings: Table 8
How it was run: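 Dosing was once a week for four weeks, with saline as control, in randomized groups of three mice. Groups were formed after subcutaneous colo320 xenografts (7.5×10^6 cells, right chest) grew to ≥120 mm^3 in female 6–8-week-old BALB/c nude mice.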

[6] = test system: sarcoma SJSA-1 tumor model; test: Efficacy in animal model of sarcoma SJSA-1, 30 mg/kg once a week for two weeks (Example 40); format: in vivo, BALB/c mice; settings: 30 mg/kg once a week for two weeks; Day 14
Method: Test objective: To further compare the antitumor efficacy of different polypeptide Linkers in an animal tumor model of sarcoma SJSA-1.
(§2) Test drug: Polypeptide conjugate and normal saline control group.
The control group was administered normal saline. Administration was performed once a week for two weeks.

[7] = test system: A2780 ovarian cancer tumor model; test: Efficacy in animal model of A2780 ovarian cancer, 30 mg/kg once a week for two weeks (Example 41); format: in vivo, BALB/c mice; settings: Day 14
Method: Test objective: To further compare the antitumor efficacy of different polypeptide Linkers in an animal tumor model of A2780 ovarian cancer.
as §2
8×10^6 corresponding cells were injected into right axillas of nude mice subcutaneously. […] The negative control group was administered normal saline. Administration was performed once a week for two weeks.

[8] = MTD determination in mice (Examples 27, 36, 44); format: in vivo; settings: female, mouse, in vivo; mice, monitored for 14 d; Table 9
Description: Test animals: 6-8 weeks old mice, all female; mice were grouped randomly, with six mice in each group, administered with drugs at different concentration gradients separately and monitored for 14 d. A mouse was euthanized at a loss of 20% of its initial weight and deemed to have died of poisoning.

[9] = Tumor homogenate activation efficiency, ovarian cancer tissue (Examples 28, 37); format: in vitro ADME; settings: pH 5.0, 37° C., 2 h; Table 10
How it was run: (§3)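 1 mg/ml conjugate, pH 5.0 (50 mM MES, 250 mM NaCl); + 100 μg tissue homogenate; 37° C, 2 h. HPLC, release = Belotecan area / total Belotecan-containing area.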

[10] = Tumor homogenate activation efficiency, sarcoma tissue (Examples 28, 37); format: in vitro ADME; settings: pH 5.0, 37° C., 2 h; Table 10
How it was run: as §3

[11] = Tumor homogenate activation efficiency, breast cancer tissue (Examples 28, 37); format: in vitro ADME; settings: pH 5.0, 37° C., 2 h; Table 10
How it was run: as §3

[12] = Tumor homogenate activation efficiency, non-small cell lung cancer tissue (Examples 28, 37); format: in vitro ADME; settings: pH 5.0, 37° C., 2 h; Table 10
How it was run: as §3

[13] = Tumor homogenate activation efficiency, colorectal cancer tissue (Example 37); format: in vitro ADME; settings: pH 5.0, 37° C., 2 h; Table 10
Method: Buffer preparation: 50 mM PH buffer (MES), 250 mM NaCl, pH adjusted to 5.0 with 0.5 M of sodium hydroxide.
The polypeptide conjugate was prepared into a 1 mg/ml solution with pH 5.0 buffer, 100 μg of tumor tissue homogenate was added, (the tumor tissue homogenate was the homogenate of tumor tissues prepared with a Jingxin F6/10 handheld homogenizer), and the solution was placed at 37° C. for 2 h. The tumor tissue homogenate could effectively activate the polypeptide conjugate and release Belotecan, and the activation efficiencies of the drugs in tumor tissues were compared by HPLC allowing determination of a decrease in the compounds and an increase in Belotecan:
Release percentage=peak area of Belotecan/total peak area of Belotecan and all other Belotecan-containing compounds

[14] = Homogenate activation efficiency, heart tissue (Examples 28, 37); format: in vitro ADME; settings: pH 5.0, 37° C., 2 h; Table 10

CC[C@@]1(O)C(=O)OCc2c1cc1n(c2=O)Cc2c-1nc1ccccc1c2CCN(C(=O)[C@H](CC(C)C)NC(=O)[C@H](CC(N)=O)NC(=O)[C@H](C)NC(=O)[C@H](C)NC(=O)CCOCCOCCOCCOCCOCCOCCNC(=O)CCN1C(=O)C=CC1=O)C1CCC1 [MI-6PEG-AANL-D7] ({Propanoyl(3-maleimido)-PEG6}-AANL-X1)
IC50 Ovarian cancer tissue (A2780) (A2780 (ovarian cancer)): 0.91 µg/mL (≈ 0.699 µM) | IC50 Non-small cell lung cancer tissue (A549) [1]: 1.81 µg/mL (≈ 1.39 µM) | IC50 Sarcoma tissue (SJSA-1) (SJSA-1 (sarcoma tissue)): 1.33 µg/mL (≈ 1.02 µM) | IC50 Breast cancer tissue (SKBR3) [2]: 2.01 µg/mL (≈ 1.54 µM) | IC50 Colorectal cancer tissue (colo320) [3]: 2.48 µg/mL (≈ 1.91 µM) | Mouse weight (%) ([4]; 15 mg/kg once a week for three weeks): +12% | Mouse weight (%) ([4]; 45 mg/kg once a week for three weeks): +19% | Mouse weight (%) ([5]; 15 mg/kg once a week for four weeks): +29% | Mouse weight (%) ([5]; 45 mg/kg once a week for four weeks): +9% | Mouse weight (%) on Day 14 [6]: −3.3% | Mouse weight (%) on Day 14 [7]: +4.8% | MTD at 14 d [8]: 150 mg/kg | Percentage of release efficiency (%) Ovarian cancer tissue (A2780) [9]: 66.7% | Percentage of release efficiency (%) Sarcoma tissue (SJSA1) [10]: 71.7% | Percentage of release efficiency (%) Breast cancer tissue (SKBR3) [11]: 72.3% | Percentage of release efficiency (%) Non-small cell lung cancer tissue (A549) [12]: 74.6% | Percentage of release efficiency (%) Colorectal cancer tissue (colo320) [13]: 76.4% | Percentage of release efficiency (%) Heart tissue [14]: 2.2%
